# Data published in US12522635B2, “Amyloid peptide variants” (Loyola Marymount University, priority 2019, dated 2026).
# Where no end group is shown, it is not given here.
# Experiments:
# human IAPP (hIAPP) [1] = biological target: T1, human IAPP (hIAPP) (Homo sapiens, UniProt P10997); test: Thioflavin T binding assay of hIAPP aggregation when mixed with IAPP peptides; assay type: biochemical; conditions: for inhibition of hIAPP aggregation, thioflavin T binding: hIAPP mixed with peptide, incubated at 37° C. with shaking; for inhibition of hIAPP aggregation (summary statement): peptide mixed with hIAPP, no single assay (thioflavin T and AFM)
# T1 construct: This 37 amino acid polypeptide is co-secreted from pancreatic β-islet cells with insulin
# T1 sequence (P10997 34-70 limits assumed): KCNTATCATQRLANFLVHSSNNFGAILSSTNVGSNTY
# Source text: Any of a number of assays known to the art can be used to evaluate the ability of IAPP peptides to inhibit hIAPP aggregation and/or protect cells from hIAPP toxicity. Thioflavin T (ThT) binding is one such technique for identifying amyloid formation in real time. Human IAPP is known to bind thioflavin T during aggregation and amyloid formation, and upon binding to amyloid fibrils ThT will give a strong fluorescence signal at approximately 482 nm when excited at 450 nm. ThT fluorescence correlates linearly with amyloid concentration in a sample and therefore can be used to determine the amount of aggregation in a sample. This technique can therefore be used for identifying substances with amyloid-inhibiting potential when such substances are mixed with human IAPP under conditions known to result in the formation of aggregates by hIAPP. Determining the extent of aggregation can also be determined using other techniques, such as Atomic Force Microscopy (AFM), which can provide information about particle dimensions, shape, and substructure with nanometer resolution. In the foregoing assays and others that can be used by one of skill in the art, significant inhibition can be determined using a t-test by measuring the difference between hIAPP and hIAPP combined with an IAPP peptide.
# To identify IAPP peptides having inhibitory potential against hIAPP aggregation, the peptides shown in FIG. 1 from a number of species (cow, degu, guinea pig, horse, pig, rat, and sheep[…]) were mixed with hIAPP at a 2:1 molar ratio of animal peptide to hIAPP and incubated under conditions known to promote hIAPP aggregation and fibril formation. IAPP alone, or hIAPP mixed with an animal IAPP, was pipetted into a glass tube and the HFIP was removed under speed-vacuum. The resulting peptide sample was dissolved in 20 mM Tris buffer pH 7.4.
# 37 μM human IAPP was mixed with 75 μM of each indicated animal IAPP. Aggregation was initiated by incubating samples at 37° C. with shaking at 200 rpm for 40 minutes. At indicated time points, a 17 μL aliquot of each sample was mixed with 663 μL of 50.0 μM thioflavin T in 20 mM Tris buffer (pH 7.4). Thioflavin T fluorescence emission was then recorded at 488 nm using a Hitachi F-7000 fluorescence spectrophotometer.
# After 40 minutes, these samples were monitored for their ability to bind thioflavin T (see FIG. 2) and their ability to form fibrils as identified with atomic force microscopy.
# Human IAPP (37 μM) was mixed with each of the indicated Weddell seal variants (at 75 μM) and incubated for 30 minutes at 37° C. with shaking at 200 rpm. The Weddell seal IAPP peptides were likewise subjected to atomic force microscopy as described in Example 2.
# Human IAPP was mixed with each of the indicated raccoon variants and incubated at 37° C. with shaking.
# Human IAPP was mixed with each of the indicated chicken variants and incubated at 37° C. with shaking. […] However, it was able to protect cells in MTT assays, so it is believed to inhibit formation of toxic oligomers while having a lesser effect on inhibiting the formation of fibers (which are less toxic and less able to bind ThT).
# Human IAPP was mixed with each of the indicated chicken variants and incubated at 37° C. with shaking.
# RIN-m cells = test: MTT viability assay, peptide alone or mixed with hIAPP; assay type: cell-based; conditions: hIAPP mixed with peptide 1:1, MTT assay
# Source text: Cytoprotection can likewise be measured by a number of assays known to the art. One such assay is the MTT assay, which is a colorimetric assay for assessing cell metabolic activity. NAD(P)H-dependent cellular oxidoreductase enzymes in the cytosolic compartment of a cell reduces the tetrazolium dye MTT 3-(4,5-dimethylthiazol-2-yl)-2,5-diphenyltetrazolium bromide to an insoluble form, formazan, which has a purple color. The reduction of MTT (and other tetrazolium dyes) depends on the cellular metabolic activity, so a loss of color in the course of performing an MTT assay indicates low metabolic activity, and is thus an indicator of cell damage and death.
# To test cell viability, a MTT colorimetric assay measuring the conversion of yellow tetrazolium salt into purple formazan crystal catalyzed by a mitochondrial reductase was used. Cell viability studies were performed using RIN-m cells (ATCC, CRL-2057). An equal number of RIN-m cells were plated in triplicate and incubated overnight in 96-well plates. The next day, fresh RPMI-1640 with phenol red supplemented with 10% FBS was added to cells. Hexafluoroisopropanol (HFIP) was removed from each individual human and animal IAPP using a centrivap concentrator (LabOnco). All IAPP peptide samples were re-suspended in RPMI-1640 with 10% FBS. To ensure even re-suspension, each resulting IAPP-containing vial was scraped with a pipette tip six times and vortexed (Vortex Genie Mixer) for 15 seconds. The whole process, from drying each IAPP peptide to adding each IAPP peptide to the cells was uniform to ensure that each sample was incubated for an equal amount of time with each IAPP peptide. IAPP peptides were added to cells and incubated for 46 hours at 37° C. Post-incubation, the media in each well was replaced by fresh DMEM/F-12 without phenol red. MTT (3-(4,5-dimethyl-2-thiazolyl)-2,5-diphenyl-tetrazolium bromide) was added into each well and incubated at 37° C. for 2 hours. Formazan crystals, formed on the bottom of the wells, were re-suspended in solubilization buffer (20% SDS and 50% dimethylformamide). The absorbance in each well was taken at 570 nm using a Multiskan FC Microplate Photometer (Thermos Fisher Scientific). Media were obtained from ATCC. All incubations took place in a water jacketed incubator in 5% carbon dioxide at 37° C. (Shell Lab).
# The MTT viability assay was used to measure cell viability of RIN-m cells upon addition of hIAPP alone, the addition of each animal IAPP peptide alone, and hIAPP mixed with each animal IAPP peptide (results shown in FIG. 5). RIN-m cells alone were used as a control and set to 100% cell viability. […] Addition of raccoon IAPP to hIAPP increased the cell viability from 55% to an average of 72% (p=0.005705). Addition of chicken IAPP variant to hIAPP increased cell viability to an average of 76% (p=0.013556).
# human IAPP (hIAPP) [2] = biological target: T1, human IAPP (hIAPP); test: Atomic force microscopy (AFM) of hIAPP fibril formation when mixed with IAPP peptides; assay type: biochemical; conditions: 37 μM hIAPP and 75 μM peptide, 37° C. with shaking for 40 minutes
# Experimental: Samples labeled with hIAPP contained 40 μM hIAPP. The sample with pramlintide and hIAPP contained a 2:1 molar mixture (80 μM Pramlintide mixed with 40 μM hIAPP). The samples with raccoon IAPP and Pramlintide alone contained 40 μM of the indicated peptides. Each sample was incubated for 40 minutes at 37° C. with shaking; conditions known to promote hIAPP amyloid formation. All scans show raw data with no flattening and are […].
# Each sample contained 37 μM hIAPP and 75 μM of the indicated peptide. Samples were incubated at 37° C. with shaking for 40 minutes. All scans show raw data with no flattening and are […].
# Each sample contained 37 μM hIAPP mixed with 37 μM of the indicated peptide. Samples were incubated at 37° C. with shaking for 30 minutes before depositing each sample onto freshly cleaved mica.
# Samples of hIAPP with or without animal IAPP were prepared as described in Example 1 and were then incubated with shaking at 37° C. for 40 minutes. After this incubation, 17 μL of each sample was deposited onto freshly cleaved mica. Samples were incubated for 5 minutes at room temperature before washing with 200 μL sterile water. After drying, the samples were scanned using an MFP-3D atomic force microscope (Asylum Research) set on A/C mode and a 240 m silicon cantilever (Olympus).
# Many of the animal IAPP variants are known to likewise form fibrils and yield amyloid-plaques when scanned via AFM. […] This is in spite of the fact that all of these IAPP peptides (except polar bear IAPP) are known to aggregate and form fibrils themselves under these or similar conditions
"inhibition of hIAPP aggregation, thioflavin T binding (human IAPP (hIAPP) [1])","inhibition of hIAPP fibril formation, AFM (human IAPP (hIAPP) [2])",Substance,rescue / protection of cells from hIAPP toxicity (words) (RIN-m cells),inhibition of hIAPP aggregation (summary statement) (human IAPP (hIAPP) [1])
inhibited hIAPP aggregation,–,KCNTATCATQRLANFLLRSSNNLGAILSPTNVGSNTY (Procyon lotor mutation) [Rac_V8A],–,–
–,–,KCNTATCATQRLANFLVRSSNNFGAILSPTNVGSNTY (KTATCATQRLANFLVHSSNNLGAILSPTNVGSNTY; Leptonychotes weddellii mutation) [WS_RP],rescued cells from hIAPP toxicity,–
inhibited hIAPP aggregation,–,KCNTATCVTQRLADFLLRSSNNLGAILSPTNVGSNTY (Procyon lotor mutation) [Rac_N13D],–,–
inhibited hIAPP aggregation,–,KCNTATCVTQRLADFLLRSSSNIGAIYSPTNVGSNTY (Gallus gallus mutation) [Ch_V16L],rescued cells from hIAPP-induced cytotoxicity,–
inhibited hIAPP aggregation,–,KCNTATCVTQRLADFLVRSSSNIGAILSPTNVGSNTY (Gallus gallus mutation) [Ch_Y26L],rescued cells from hIAPP-induced cytotoxicity,–
inhibited hIAPP aggregation,–,KCNTATCVTQRLANFLLRSSNNIGAILSPTNVGSNTY (Procyon lotor mutation) [Rac_L22I],–,–
inhibited hIAPP aggregation,–,KCNTATCVTQRLANFLLRSSNNLGAILSPT (ends and bridges not checked; cysteine pairing not given here) [R1-30],rescued cells from hIAPP-induced cytotoxicity,–
inhibited hIAPP aggregation,–,KCNTATCVTQRLANFLVRSSNNLGAILSPTNVGSNTY (Procyon lotor mutation) [Rac_L16V],–,–
–,did not inhibit hIAPP aggregation,R1-23: truncated raccoon IAPP peptide of FIG. 19; sequence not printed in the text (KCNTATCVTQRLANFLLRSSNNL),–,–
–,did not inhibit hIAPP aggregation,R8-23: truncated raccoon IAPP peptide of FIG. 19; sequence not printed in the text (VTQRLANFLLRSSNNL),–,–
–,did not inhibit hIAPP aggregation,R8-30: truncated raccoon IAPP peptide of FIG. 19; sequence not printed in the text (VTQRLANFLLRSSNNLGAILSPT),–,–
–,–,SEQ ID NO:21: raccoon IAPP peptide with amino acids removed from the N-terminal end (FLLRSSNNLGAILSPTNVGSNTY; Procyon lotor truncation),failed to inhibit aggregation of hIAPP or reduce its cytotoxicity,failed to inhibit aggregation of hIAPP or reduce its cytotoxicity
–,–,SEQ ID NO:22: raccoon IAPP peptide with amino acids removed from the middle (FLLRSSNNLGAILSPTN; Procyon lotor truncation),failed to inhibit aggregation of hIAPP or reduce its cytotoxicity,failed to inhibit aggregation of hIAPP or reduce its cytotoxicity
–,–,SEQ ID NO:23: raccoon IAPP peptide with amino acids removed from the N-terminal end (ATQRLANFLLRSSNNLGAILSPTNVGSNTY; Procyon lotor truncation),failed to inhibit aggregation of hIAPP or reduce its cytotoxicity,failed to inhibit aggregation of hIAPP or reduce its cytotoxicity
–,–,SEQ ID NO:24: raccoon IAPP peptide with amino acids removed from the middle (VTQRLANFLLRSSNNLGAILSPT; Procyon lotor truncation),failed to inhibit aggregation of hIAPP or reduce its cytotoxicity,failed to inhibit aggregation of hIAPP or reduce its cytotoxicity
–,–,SEQ ID NO:25: raccoon IAPP peptide with amino acids removed from the middle (VTQRLANFLLRSSNNL; Procyon lotor truncation),failed to inhibit aggregation of hIAPP or reduce its cytotoxicity,failed to inhibit aggregation of hIAPP or reduce its cytotoxicity
